Measured values as given in the supplement of paper PMC9170038.

System: K4 kissing-loop RNA reporter
Assay: apparent KD of K4 kissing-loop reporter; higher = weaker reporter binding
Conditions: Eterna round: R107
Method: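 RNA-MaP round R107: designed RNA switches with theophylline, tryptophan, arginine or FMN aptamers are transcribed on-chip within common flanks. They are titrated with a labelled K4 kissing-loop RNA reporter in RNA-MaP buffer (100 mM Tris pH 7.5, 80 mM KCl, 4 mM MgCl2), without ligand or with the indicated ligand. Median apparent KD per design.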

[1] = input ligand: theophylline 20 uM
[2] = input ligand: tryptophan 2.4 mM
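Note: bound reporter read as fluorescence of individual clusters on recovered sequencing chips by microscopy, with normalized cluster intensities fitted with a binding model.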

Sequence	apparent KD of K4 kissing-loop reporter (input ligand: FMN 200 uM) [nM]	apparent KD of K4 kissing-loop reporter (input ligand: arginine 13.2 mM) [nM]	apparent KD of K4 kissing-loop reporter (input ligand: none) [nM]	apparent KD of K4 kissing-loop reporter [1] [nM]	apparent KD of K4 kissing-loop reporter [2] [nM]
AGUAGGAAACUACAAUCCUCUCUUACUGAAGGAGCGCGUGAAAACGCAGGUAGGUCGCAGGAUUUGAGAGUGAUGUUCUCAUUAA [Ex Arginine A K4 16]	201	294	231	277	174
AGUAGUUGGACGGCCGCCACUAGAACAGCUUUGCCAAAGGCAGAGCACUAGAGUGAUGUUCUAGCUAGGACCGGGUCCAACUACA [Omei KL Tryp B SS A v1]	902	306	54.2	118	1000
AGUAUUGAGUCGGCCGCCACUGGUUUAAUGAGUGUCAAUUCUGGAUCAAAGUGAUGUUUUGGAGCUAGGACCGGGACCAUUGUUA [#07 K4 Tryptophan B Exclusion]	446	360	433	360	479
AGUCCACUCUAAAGAGUGGACCUAAGGGAUACCAGUGAUGUUGGUCACCCUUGGCAGCCCACUGUCAUCGAUAAAGAUGGCAGGA	128	112	116	119	117
AGUCCACUCUAAAGAGUGGACCUAAGGGAUACCAGUGAUGUUGGUCACCCUUGGCAGCCCUCUGUCAUCGAUAAAGAUGGCAGGA	128	114	113	137	119
AGUCGAGAUUAUAGACUCGACAGGUCAGAAGGAGCGACGAAUUCGUCAGGUAGGUCGCUGACAUAGCAGUGAUGUUGCUAUACGG [Arg A SS t1]	149	132	150	163	126
AGUCGCAGUGAUGUUGCGAUUCCGUUGAGGGAGGAUAUUGGUAAUACAAGAAGGCCCGGCUACGGGAGAUGUUAGCAAUAGGGCC [Exclusion FMN A GF20]	92	94.5	63	65	63.9
AGUGAUAUAUGAGGAUAUGGGUUAAUUAGUGAGUGAUUUUUAGUGUUGUUUGAUUAGUGAUGUUAUUUAGAAGGCGUGAGUGAUG [mvvmjmullin]	123	106	81.9	144	79.4
AGUGAUAUAUGAGGAUAUGGGUUGGUUAAUGAGUUAGUUUUAGUGUUGUUUGGUUAGUGAUGUUAUUUAGAAGGCGUGAGUGAUG [sffdsmullin]	99.6	88.3	81.8	95.8	71.8
AGUGAUGUGGGAAGGAGCGCUAGUACACUUCAGUGAUGUUGAAGUGAUGAAUUAGUGUAUUGGCAGGUAGGUCGCCUAGAUGUUA [KL-XARG-B14]	97.4	59.1	82.9	65.4	72.5
AGUGAUGUGGGAAGGAGCGGUAGAUGAGUUCAGUGAUGUUGAAGUGAUGCUGUAGUGAUGUGCCAGGUAGGUCGCCUAGAUGUUA [KL-XARG B24]	353	162	258	130	207
AGUGAUGUGGGAAGGAGCGGUAUAAGAAUUCAGUGAUGUUGAAGUGUUGCAGAAAUAAAAGGCCAGGUAGGUCGCCUAGAUGUUA [KL-XARG B29]	347	384	454	519	243
AGUGCACUGUCAGGAUAUAUACAGUGAUGUUGUGUAUGUCAGCAAGUCAAAGACUUGCUAUUUUGUGUAGAAGGGACUGUGUACA [whbob_Ex_FMNB__2th221]	385	156	176	155	177
AGUGGACGUGUCCGGAGUGAUGUUCCGGAUACCAGACACGAAAGUGUCCCUUGGCAGCCGGAGUAAAGUUCCGGCGUUCACUAAA [#26 K4 Theophylline A Exclusion]	109	77.8	111	67.2	105
AGUGGACGUGUCCGGAGUGAUGUUCCGGAUACCAGACACGAAAGUGUCCCUUGGCAGCCGGAGUGAUGUUCCGGCGUUCACUAAA [Omei KL Theo A Exc B v1]	270	185	243	220	257
AGUGGUGUAUCUUUUAAGAGUGAUGUUUUUCGAGGACCGGUACGGCCGCCACUCGAGUGAUGAGUGCGUCGUUGUGGUGAUUAGU [#14 K4 Tryptophan A Exclusion]	816	530	826	688	262

Sequence	apparent KD of K4 kissing-loop reporter (input ligand: FMN 200 uM) [nM]	apparent KD of K4 kissing-loop reporter (input ligand: arginine 13.2 mM) [nM]	apparent KD of K4 kissing-loop reporter (input ligand: none) [nM]	apparent KD of K4 kissing-loop reporter [1] [nM]	apparent KD of K4 kissing-loop reporter [2] [nM]
AGUGUUAGGUUAGAUACCAGCCGUCUAUGGAUAAUCCUCAGACCGCCAGUGAUGUUGGCAGGCCCUUGGCAGCUAACAGAACAGA [Reinonor]	202	218	240	164	213
AGUGUUAGGUUAGAUACCAGCCGUCUGUGGAUAAUCCUCAGACCGCCAGUGAUGUUGGCAGGCCCUUGGCAGCUAACAGGACAGA [Mavebius]	275	268	272	155	237
AGUUCUUGCCGAAGGAGCGAGGCAGAGUGAUGUUCUGCAAAGGUCGAAAGACCUUAACUGCCUCAGGUAGGUCGCGGCAUGAACA [KL-XARG-B23]	622	351	624	602	580
AGUUCUUGCCGAAGGAGCGAGGCAGAGUGAUGUUCUGCAGGAGGUCGAAAGACCUCCCUGCCUCAGGUAGGUCGCGGCAUGAACA [Omei KL Arginine B Exc A v1]	587	590	1250	566	478
AUAGACUUGCAGUGAUGUUGCAAGUGAGACUAGGAUAUCAGGAAGCUGAGAAGGAGUCAUCUCCUUCAGACAUCACUAUGAAGGA [whbob_SS_FMNA__2th180]	270	180	251	204	221
AUAGGAGUGAUGUUCCUUAGUCUCUCCGAUACCAGUAUGGAAACAUACCCUUGGCAGCGGUAGACCGCAGAUUAGGAAACUAGUC [Theophylline A K4 3]	657	726	785	503	610
AUAUAGAGUGAUGUUCAUGAGUAUUUCGAAGGAGCGCUAAAUAAGGCAGGUAGGUCGCGGAAAAUAUAUAUAUAGAUAUAUAUAU [KL-SSArg-A29]	168	351	535	665	280
AUAUUAAGCGGAAGGAGCGGCUGAACCAGUGAUGUUGGUUAAUCCAAGUGAUGUUGGAAAAGCCAGGUAGGUCGCCGCUAUAUAU [Same State Arg B GF 1]	725	424	695	569	640
AUCGAUAUCAGAGGAUAUGCUUAAUAGAUUUAUUAUUAUCUAUUAUGCAGUGAUGUUGCAUAUUUUGCAGAAGGCUGAUUUCGAA [JR_SSFMNB_Sub019]	124	433	447	429	403
AUCGUUGUCUGAGGAUAUCGUUUAACUGUAGUGAUGUUACAGAAAAUUCAUAUUAUAUUUUCUAUUCGAGAAGGCAGACUACGUA [JR_ExcFMNB_Sub016]	172	133	135	123	138
AUCUAUGAGCGAGGAUAUGCAUGACGCGAGUGAUGUUCGCGAUGUGGGCGUGAUUAGUAAUAUGAAGCAGAAGGCGCACUCAUGA [Exclusion - FMW B / A]	216	111	153	116	129
AUCUGGUUGGGCGAUACCAGUUUGGCAUAGUGAUGUUAUGCAACGCUCAGUGCAAGGCCAAACCCUUGGCAGCGCACAUCCUUUC [theeternabot_exclusion_KL_Theo_B_3]	128	99.1	105	117	105
AUCUUGUUUGGAGGAUAUUCUUUAUUUGACAUAACCUUCUAUAAGGUGCAGUGAUGUUGCAAUAUAGGAGAAGGUCGAGUGAGAU [Exclusion FMN B GF 18]	190	160	188	202	177
AUGCGCGCGGCGGCCGCCACUCGCAUGAGAGUGAUGUUCUCGCCGGGCCCGGAAGGGCCCGGUGUGAGGACCGGGCCGGGCUGCG [#2 Same State - Tryptophan B Attempt #17 (HarryS)]	121	73.2	175	278	344
AUGCGGUGGAGGCUACCGCUAUUCUGAGAAGGAGCGCAGAUGACUGCAGGUAGGUCGCUUAGAGCUUGCAGUGAUGUUGCAAGUU [Islatimaed]	200	168	191	174	204
AUGGCACGACUUGCCCACAAUGUCUAUGCCCGAGGACCGGUACGGCCGCCACUCGGAUGCCGUGUCUUAUUAGUGAUGUUGAUAC [theeternabot_sameState_KL_Trp_A_4]	355	204	411	355	199
